# Reference: patent US20260151494A1 (ARO BIOTHERAPEUTICS, published 2026)
# Numbering of substitutions follows the chain as printed.
# B1: CD71-binding FN3 domain of SEQ ID NO: 144 (designed binder)
# chain: MSLPAPKNLVVSRVTEDSARLSWTAPDAAFDSFEIGYFENLYLGEAIVLTVPGSERSYDLTSLKPGTEYWVQIGGVKGGNWSAPLSATFTT
# B2: CD71-binding FN3 domain of SEQ ID NO: 166 (designed binder)
# chain: B1 chain with S62G, V76I, T88I
# B3: CD71-binding FN3 domain of SEQ ID NO: 174 (designed binder)
# chain: B1 chain with D27N, S62G, T88I
# B4: CD71-binding FN3 domain of SEQ ID NO: 170 (designed binder)
# chain: B1 chain with S62G, A83T, T88I
# B5: CD71-binding FN3 domain of SEQ ID NO: 156 (designed binder)
# chain: B1 chain with N40M, L41S, Y42W, L43T, S62G, W70V, Q72F, T88I
# B6: CD71-binding FN3 domain of SEQ ID NO: 176 (designed binder)
# chain: B1 chain with E34F, F38L, N40P, L41Q, Y42P, L43P, V48H, T50F, S62G, T88I
# B7: CD71-binding FN3 domain of SEQ ID NO: 184 (designed binder)
# chain: B1 chain with L21P, G36A, N40R, L41T, Y42W, L43F, S62G, N80D, A83K, T88I
# B8: CD71-binding FN3 domain of SEQ ID NO: 192 (designed binder)
# chain: B1 chain with S62G, N80W, W81G, A83N, T88I
# B9: CD71-binding FN3 domain of SEQ ID NO: 186 (designed binder)
# chain: B1 chain with L41P, S62G, T88I
# B10: CD71-binding FN3 domain of SEQ ID NO: 181 (designed binder)
# chain: B1 chain with L41D, L43F, S62G, T88I
# B11: CD71-binding FN3 domain of SEQ ID NO: 171 (designed binder)
# chain: B1 chain with S62G, N80E, A83S, T88I
# B12: CD71-binding FN3 domain of SEQ ID NO: 146 (designed binder)
# chain: B1 chain with E34D, L41T, L43E, S62G, W70V, Q72W, N80S, W81Y, A83S, T88I
# B13: CD71-binding FN3 domain of SEQ ID NO: 148 (designed binder)
# chain: B1 chain with G36V, F38Q, L41S, Y42A, L43Y, S62G, N80E, T88I
# B14: CD71-binding FN3 domain of SEQ ID NO: 182 (designed binder)
# chain: MSLPAPENLVVSRVTEDSARLSWTAPDAAFDSFEIGYWENAYKGEAIVLTVPGSERSYDLTGLKPGTEYVVFIGGVKGGVWSVPLSVIFTT
# B15: CD71-binding FN3 domain of SEQ ID NO: 149 (designed binder)
# chain: B1 chain with E34D, N40L, L41R, L43Y, S62G, Q72S, N80T, W81Y, T88I
# B16: CD71-binding FN3 domain of SEQ ID NO: 177 (designed binder)
# chain: B1 chain with T88I
# B17: CD71-binding FN3 domain of SEQ ID NO: 159 (designed binder)
# chain: B1 chain with G36V, F38Q, L41S, Y42A, L43Y, S62G, T88I, F89S
# B18: CD71-binding FN3 domain of SEQ ID NO: 191 (designed binder)
# chain: B1 chain with T61A, S62G, T88I
# Molecular target: T1, human CD71 extracellular domain (human, UniProt P02786 89-760)
# T1 construct: also called hCD71; human CD71-ECD
# Assay: primary ELISA; also: test concentration or dose not given here
# T1 sequence (P02786 89-760): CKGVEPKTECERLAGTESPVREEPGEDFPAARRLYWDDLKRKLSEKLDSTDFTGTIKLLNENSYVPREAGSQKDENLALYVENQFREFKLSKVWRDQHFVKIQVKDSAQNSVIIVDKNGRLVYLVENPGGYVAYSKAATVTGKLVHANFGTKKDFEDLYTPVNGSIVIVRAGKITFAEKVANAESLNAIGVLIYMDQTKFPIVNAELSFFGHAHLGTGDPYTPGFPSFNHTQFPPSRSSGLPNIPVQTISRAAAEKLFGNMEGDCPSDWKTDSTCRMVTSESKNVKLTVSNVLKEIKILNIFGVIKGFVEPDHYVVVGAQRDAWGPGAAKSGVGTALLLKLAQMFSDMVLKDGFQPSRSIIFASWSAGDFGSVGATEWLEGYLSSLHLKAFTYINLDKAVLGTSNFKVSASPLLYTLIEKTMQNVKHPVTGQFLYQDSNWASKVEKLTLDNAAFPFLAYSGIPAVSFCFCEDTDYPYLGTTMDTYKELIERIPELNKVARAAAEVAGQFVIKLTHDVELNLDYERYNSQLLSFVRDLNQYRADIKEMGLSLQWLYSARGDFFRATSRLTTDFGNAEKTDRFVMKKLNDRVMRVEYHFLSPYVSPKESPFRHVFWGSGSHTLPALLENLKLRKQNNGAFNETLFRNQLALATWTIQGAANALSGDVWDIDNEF
row,Binder,RLU [RLU]
1,B1,4.74e+06
2,B2,4.44e+06
3,B3,3.61e+06
4,B4,3.81e+06
5,B5,3.68e+06
6,B6,7.01e+06
7,B7,3.74e+06
8,B8,2.67e+06
9,B9,3.63e+06
10,B10,2.84e+06
11,B11,4.4e+06
12,B12,4.34e+06
13,B13,2.45e+06
14,B14,3.81e+06
15,B15,3.77e+06
16,B16,3.22e+06
17,B17,2.64e+06
18,B18,4.2e+06

# Molecular target: T2, apical domain of cynomolgus CD71 (cynomolgus, UniProt A0A2K5X958 189-383)
# T2 construct: domain: apical domain; also called Cyno apical domain
# Assay: primary ELISA; also: test concentration or dose not given here
# T2 sequence (A0A2K5X958 entry or part of it): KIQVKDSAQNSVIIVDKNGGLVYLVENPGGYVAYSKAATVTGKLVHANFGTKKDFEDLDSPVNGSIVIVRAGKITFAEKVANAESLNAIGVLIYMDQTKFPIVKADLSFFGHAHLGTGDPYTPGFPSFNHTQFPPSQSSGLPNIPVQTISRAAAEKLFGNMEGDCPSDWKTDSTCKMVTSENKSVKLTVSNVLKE
row,Binder,RLU [RLU]
1,B1,5.3e+06
2,B2,5.02e+06
3,B3,4.71e+06
4,B4,5e+06
5,B5,4.43e+06
6,B6,6.06e+06
7,B7,5.08e+06
8,B8,3.91e+06
9,B9,4.75e+06
10,B10,4.61e+06
11,B11,4.93e+06
12,B12,4.96e+06
13,B13,4.72e+06
14,B14,4.96e+06
15,B15,5e+06
16,B16,4.54e+06
17,B17,4.77e+06
18,B18,4.99e+06

# Molecular target: T1, human CD71 extracellular domain
# Assay: primary ELISA, signal ratio to HSA
row,Binder,hCD71:HSA
1,B1,134
2,B2,153
3,B3,127
4,B4,127
5,B5,69
6,B6,172
7,B7,74
8,B8,61
9,B9,117
10,B10,133
11,B11,109
12,B12,112
13,B13,212
14,B14,101
15,B15,342
16,B16,110
17,B17,40
18,B18,92

# Molecular target: T2, apical domain of cynomolgus CD71
# Assay: primary ELISA, signal ratio to HSA
row,Binder,Cyno apical domain:HSA
1,B1,150
2,B2,173
3,B3,165
4,B4,166
5,B5,83
6,B6,149
7,B7,101
8,B8,90
9,B9,153
10,B10,216
11,B11,122
12,B12,128
13,B13,408
14,B14,131
15,B15,455
16,B16,156
17,B17,72
18,B18,109
